Test results: patent US6673354B2, “Compositions and methods for treating papillomavirus-infected cells” (priority 1998, dated 2004)
Where no end group is shown, it is not given here.

Experiments:
HPV11 E1/E2 interaction = target: T1, HPV11 E1/E2 interaction (Human papillomavirus 11, UniProt P04014); assay: In vitro HPV E1-E2 binding assay, HPV11 E1 and HPV11 E2
T1 construct: made in house; host or cells: Hi-Five insect cells infected with recombinant baculoviruses (gift from Louise Chow); nuclear extracts
T1 sequence (P04014 whole entry, looked up): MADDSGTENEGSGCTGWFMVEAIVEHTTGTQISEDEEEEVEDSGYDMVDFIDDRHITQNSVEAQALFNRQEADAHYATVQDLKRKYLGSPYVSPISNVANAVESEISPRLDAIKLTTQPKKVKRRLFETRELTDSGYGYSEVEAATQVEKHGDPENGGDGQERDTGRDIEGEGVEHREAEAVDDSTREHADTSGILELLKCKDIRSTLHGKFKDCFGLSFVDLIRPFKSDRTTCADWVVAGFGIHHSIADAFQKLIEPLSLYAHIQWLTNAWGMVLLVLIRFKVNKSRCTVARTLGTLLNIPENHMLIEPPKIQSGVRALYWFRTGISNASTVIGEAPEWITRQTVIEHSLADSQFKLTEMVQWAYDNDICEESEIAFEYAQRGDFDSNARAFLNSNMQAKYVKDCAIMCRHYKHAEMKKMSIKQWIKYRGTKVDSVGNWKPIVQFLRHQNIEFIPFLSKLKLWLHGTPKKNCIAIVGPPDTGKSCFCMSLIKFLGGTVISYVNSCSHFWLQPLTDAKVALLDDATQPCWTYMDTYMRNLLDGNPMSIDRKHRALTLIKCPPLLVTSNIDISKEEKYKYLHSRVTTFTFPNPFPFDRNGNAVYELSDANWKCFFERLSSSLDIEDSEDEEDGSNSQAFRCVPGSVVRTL
Method: (§1) In vitro HPV E1-E2 binding assay. 300-500 ng protein from HPV16 or HPV11 EE-E1 expressing recombinant baculovirus infected cell nuclear extracts and 80-120 ng from HPV E2 baculovirus infected cell nuclear extracts were incubated in 500 μl NET-gel buffer (50 mM Tris-HCl pH7.5, 150 mM NaCl, 0.1% NP-40, 1 mM EDTA, 0.25% gelatin) at 4° C. for one hour. 1-2 μg anti-EE monoclonal antibody was added and incubated with shaking at 4° C. for one hour. Immune complexes were precipitated with protein-G agarose beads and washed twice for 30 minutes with ice cold NET-gel buffer. Precipitated proteins were detected by Western blot using appropriate primary antibodies and anti-rabbit IgG HRP or anti-mouse IgG HRP (Amersham). Membranes were blocked for one hour in TNET (10 mM Tris 7.5, 2.5 mM EDTA, 50 mM NaCl, 0.1% Tween-20) containing 4% (w/v) dry milk. Washes and antibody reactions were carried out in TNET, and proteins were visualized by chemiluminescence (Reneaissance ECL, NEN) and autoradiography. Bands were quantitated using the NIH image program.
(§2) Very little is known about the physical properties of domains within the papillomavirus E1 and E2 proteins that are involved in intermolecular recognition and association. […] The effect of the E2N-WP15 peptide on these interactions was also assessed. […]

[1] = test system: in vitro HPV16 DNA replication; assay: In vitro replication of HPV16 DNA (293 cell extract, EE-E1, HPV16 E2); type: biochemical; conditions: 40 ng EE-E1 and 6 ng HPV16 E2, FIG. 7
Method: In vitro replication reactions. In vitro replication reactions were essentially as described by Kuo et al. (18) in 25 μl reactions at 37° C. for indicated times. Standard reactions were for 2 hours, and were terminated by addition of 200 μl stop solution (20 mM Tris-HCl pH 7.5, 10 mM EDTA, 0.1% SDS, and 20 μg/ml RNase A). After incubation at 37° C. for 15 minutes, proteinase K was added (200 μg/ml) and incubation was continued 30 minutes. Samples were extracted with 250 μl phenol/chloroform/isoamyl alcohol (25:24:1), ethanol precipitated, washed with 70% ethanol, dried, resuspended in 20-30μl TE, and analyzed on a 0.8% agarose gel (TAE). The agarose gel was dried onto Hybond N+ membrane (Amersham), and replicated DNA was visualized by autoradiography. Bands were quantitated by Phosphorimager analysis. Replication templates were pKS7838-7905 (nt7838-7905/1-130) containing the HPV16 replication origin, and pUC7874-99 containing the HPV11 origin of replication (nt7874-7933/1-99). pUC7874-99 was a generously provided by Dr. Louise Chow.
We sought to establish a system for the study of HPV16 DNA replication in vitro, and to determine whether specific interaction between HPV16 E1 and E2 was required for HPV16 DNA replication in this system. […] As has been documented for other papillomavirus E1 proteins, some replication was observed using relatively large amounts of E1 in the absence of E2 (lanes 2 through 7) (6, 16, 22, 33, 40, 48). […] Replication in this assay is ori-dependent, since the small amount of replication of the pKS plasmid lacking the HPV16 origin detected at high concentrations of EE-E1 (FIG. 3B, lanes 1-6) was not stimulated by E2 (FIG. 1B, lanes 7-12).
Since the E2N-WP23 and E2N-WP 15 peptides could inhibit interaction between […] E1 and E2, their ability to inhibit in vitro HPV16 DNA replication was also tested (FIGS. 7A and 7B).

[2] = target: T2, interaction between HPV11 E1 and HPV16 E2 (Human papillomavirus 11, UniProt P04014); assay: In vitro HPV E1-E2 binding assay, HPV11 E1 and HPV16 E2
T2 construct: made in house; host or cells: Hi-Five insect cells infected with recombinant baculovirus (HPV-11 EE-E1 virus a gift from Louise Chow); nuclear extracts
T2 sequence (P04014 whole entry, looked up): T1 sequence (P04014 whole entry, looked up)
Method: as §1, §2

Q: WKHMRLACAIYYKAR [E2N-MP15] was tested. Which “inhibition of HPV11 E1/E2 interaction” value (HPV11 E1/E2 interaction) did it give?
A: Its value is “did not inhibit”.

Q: What about the “inhibition of in vitro HPV16 DNA replication” value [1] of the same sequence?
A: The value was “wild type peptides inhibited replication much more effectively than the respective E39A substituted analog”.

Q: And the “inhibition of interaction between HPV11 E1 and HPV16 E2” value [2]?
A: The value was “did not inhibit”.
